Article PMC9174195, “Structural insights into human brain–gut peptide cholecystokinin receptors” (Cell Discovery, 2022)
Values belong to the molecule of their own block, whether it stands above or below them. Square brackets hold non-standard residues; d marks the D form. Ends that are not written are not given here. sY = N[C@@H](Cc1ccc(OS(=O)(=O)O)cc1)C(=O)O

Key:
CCK2R K324N (human) = CCK2R K324N (human) (UniProt P32239)
CCK2R R152A (human) = CCK2R R152A (human) (UniProt P32239)
CCK2R L335A (human) = CCK2R L335A (human) (UniProt P32239)
CCK2R Q166A (human) = CCK2R Q166A (human) (UniProt P32239)
CCK2R I156A (human) = CCK2R I156A (human) (UniProt P32239)
[1] = target: T1, human CCK2R with 15-residue depletion at the C-terminus, N-terminal Flag-tag, C-terminal LgBiT and double MBP … (human, UniProt P32239 1-432); assay: cryo-EM structure; gastrin-17–CCK2R–Gq–scFv16 complex; CCK2R, GqiN, Gβγ-peptide and Ric-8A co-expressed in Sf9, ligand and apyrase added, complex purified on MBP resin and Superdex 200 (20 mM HEPES pH 7.5, 100 mM NaCl); 13 mg/mL on the grid; 3.1 Å; conditions: both partners purified
T1 construct: human cholecystokinin receptor CCK2R, wild type, C-terminal 15 residues removed; also called CCK2 receptor; gastrin receptor; not shown: LgBiT, C-terminal, kept
T1 sequence (looked up): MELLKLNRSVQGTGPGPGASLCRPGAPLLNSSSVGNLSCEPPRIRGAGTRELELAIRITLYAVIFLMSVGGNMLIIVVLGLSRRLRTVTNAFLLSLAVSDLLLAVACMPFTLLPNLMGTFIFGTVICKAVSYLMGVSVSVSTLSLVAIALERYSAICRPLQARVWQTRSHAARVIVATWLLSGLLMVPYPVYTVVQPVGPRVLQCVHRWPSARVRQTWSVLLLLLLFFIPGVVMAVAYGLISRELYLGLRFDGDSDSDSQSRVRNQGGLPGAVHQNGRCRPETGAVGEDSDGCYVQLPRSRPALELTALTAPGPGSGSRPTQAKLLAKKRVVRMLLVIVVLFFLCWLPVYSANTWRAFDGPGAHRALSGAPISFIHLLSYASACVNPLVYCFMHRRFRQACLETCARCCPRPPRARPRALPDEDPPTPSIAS

coupling potency with Gs against wild-type CCK2R, CCK-8-induced cAMP accumulation (Fig. 7d) (CCK2R K324N (human)): > 3 fold
Molecule: dominant-negative human Gαs (DNGαs) (from UniProt P63092 1-394) (natural protein)

efficacy of G protein signaling against the wild type, CCK-8-induced Gαq–Gγ dissociation (NanoBiT) assay (% of the wild-type) (CCK2R R152A (human)): 30
potency of G protein signaling against the wild type, CCK-8-induced Gαq–Gγ dissociation (NanoBiT) assay (CCK2R R152A (human)): > 3 fold
CCK-8 efficacy, CCK-8-induced Gαq–Gγ dissociation (NanoBiT) assay (% reduction of efficacy) (CCK2R L335A (human)): 50
CCK-8 efficacy, CCK-8-induced Gαq–Gγ dissociation (NanoBiT) assay (% reduction of efficacy) (CCK2R Q166A (human)): 50
CCK-8 efficacy, CCK-8-induced Gαq–Gγ dissociation (NanoBiT) assay (% reduction of efficacy) (CCK2R I156A (human)): 50
Molecule: Gαq with the 29 N-terminal amino acids replaced by the corresponding sequence of Gαi1 (GqiN) (from UniProt P50148 30-359)

binding result [1]: binds
B1: sulfated gastrin-17 (peptide, UniProt P01350 76-92, looked up)
peptide: QGPWLEEEEEA[sY]GWMDF
modifications: not fully specified (residue 1, C-terminus)
notes: gastrin-17, cut product of the gastrin precursor
